These results are taken from patent publication US20060286609A1 (BIOCHECK, published 2006).

In assay [1] the target is T1, Human Id3: Histidine (human, UniProt Q02535 1-119, limits assumed).
T1 construct: E. coli fusion protein (vector pGW07); also called h-Id3: His; not shown: His-tag
T1 sequence (looked up): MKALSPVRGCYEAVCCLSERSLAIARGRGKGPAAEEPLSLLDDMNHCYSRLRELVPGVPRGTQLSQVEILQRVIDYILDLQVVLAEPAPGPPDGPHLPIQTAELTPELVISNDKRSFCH
Description: ELISA, coated antigen, Ab 0.250 ug/ml.

Assay [2] deals with T2, Human Id2: Histidine (human, UniProt Q02363 1-134, limits assumed).
T2 construct: E. coli fusion protein (vector pGW07); also called h-Id2: His; not shown: His-tag
T2 sequence (looked up): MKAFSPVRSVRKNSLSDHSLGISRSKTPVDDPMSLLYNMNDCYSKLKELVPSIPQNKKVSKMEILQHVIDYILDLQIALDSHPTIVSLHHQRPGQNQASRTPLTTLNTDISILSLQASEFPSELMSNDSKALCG
The assay can be described thus: ELISA, coated antigen, Ab 0.250 ug/ml. Background: In an ELISA, binding on a coated surface is turned into a signal by an enzyme label.

In assay [3] the target is T3, Mouse Id3: Histidine (mouse, UniProt P41133 1-119, limits assumed).
T3 construct: E. coli fusion protein (vector pGW07); also called m-Id3: His; not shown: His-tag
T3 sequence (looked up): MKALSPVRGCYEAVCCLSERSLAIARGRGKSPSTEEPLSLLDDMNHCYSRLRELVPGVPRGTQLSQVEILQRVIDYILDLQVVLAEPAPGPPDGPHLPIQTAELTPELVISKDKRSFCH
The assay can be described thus: ELISA, coated antigen, Ab 0.250 ug/ml.

Assay [4] concerns the target T4, Mouse Id2: Histidine (mouse, UniProt P41136 1-134, limits assumed).
T4 construct: E. coli fusion protein (vector pGW07); also called m-Id2: His; not shown: His-tag
T4 sequence (looked up): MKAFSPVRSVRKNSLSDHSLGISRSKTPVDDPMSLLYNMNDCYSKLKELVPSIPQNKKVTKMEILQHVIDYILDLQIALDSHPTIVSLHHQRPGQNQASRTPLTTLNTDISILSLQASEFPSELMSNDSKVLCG
The assay can be described thus: ELISA, coated antigen, Ab 0.250 ug/ml.

Assay [5] deals with T5, Human Id4: Histidine (human, UniProt P47928 1-161, limits assumed).
T5 construct: E. coli fusion protein (vector pGW07); also called h-Id4: His; not shown: His-tag
T5 sequence (looked up): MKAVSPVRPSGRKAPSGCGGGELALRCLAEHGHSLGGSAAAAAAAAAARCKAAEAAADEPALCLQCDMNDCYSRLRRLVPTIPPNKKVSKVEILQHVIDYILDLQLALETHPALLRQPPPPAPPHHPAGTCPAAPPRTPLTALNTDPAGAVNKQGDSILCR
Description: ELISA, coated antigen, Ab 0.250 ug/ml.

Assay [6] has as its target T6, Mouse Id4: Histidine (mouse, UniProt P41139 1-161, limits assumed).
T6 construct: E. coli fusion protein (vector pGW07); also called m-Id4: His; not shown: His-tag
T6 sequence (looked up): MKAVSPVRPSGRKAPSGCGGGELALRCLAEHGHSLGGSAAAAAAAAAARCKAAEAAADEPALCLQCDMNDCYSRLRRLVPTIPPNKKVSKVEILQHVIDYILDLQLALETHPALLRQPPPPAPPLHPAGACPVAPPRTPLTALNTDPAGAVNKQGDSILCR
The assay can be described thus: ELISA, coated antigen, Ab 0.500 ug/ml.

Assay [7] deals with T1, Human Id3: Histidine. The assay can be described thus: ELISA, coated antigen, Ab 0.500 ug/ml.
The target of assay [8] is T2, Human Id2: Histidine. Description: ELISA, coated antigen, Ab 0.500 ug/ml.
The target of assay [9] is T7, Mouse Id1: Histidine (mouse, UniProt P20067-2 1-148).
T7 construct: E. coli fusion protein (vector pGW07); also called m-Id1-His; not shown: His-tag
T7 sequence: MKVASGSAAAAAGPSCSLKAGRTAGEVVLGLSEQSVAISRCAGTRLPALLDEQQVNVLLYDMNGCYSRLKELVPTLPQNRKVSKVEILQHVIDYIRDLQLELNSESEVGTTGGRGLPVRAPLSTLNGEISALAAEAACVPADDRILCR
The assay can be described thus: ELISA, coated antigen, Ab 0.500 ug/ml.

In assay [10] the target is T3, Mouse Id3: Histidine. The assay can be described thus: ELISA, coated antigen, Ab 0.500 ug/ml.
Assay [11] addresses T4, Mouse Id2: Histidine. The assay can be described thus: ELISA, coated antigen, Ab 0.500 ug/ml.
Assay [12] deals with T5, Human Id4: Histidine. The assay can be described thus: ELISA, coated antigen, Ab 0.500 ug/ml.
For assay [13], the target named is T6, Mouse Id4: Histidine. Description: ELISA, coated antigen, Ab 0.100 ug/ml.
Assay [14] concerns the target T7, Mouse Id1: Histidine. The assay can be described thus: ELISA, coated antigen, Ab 0.100 ug/ml.
Assay [15] addresses T4, Mouse Id2: Histidine. The assay can be described thus: ELISA, coated antigen, Ab 0.100 ug/ml.
Assay [16] addresses T5, Human Id4: Histidine. Description: ELISA, coated antigen, Ab 0.100 ug/ml.
Assay [17] has as its target T6, Mouse Id4: Histidine. Description: ELISA, coated antigen; relative to mouse Id1.
In assay [18] the target is T1, Human Id3: Histidine. The assay can be described thus: ELISA, coated antigen; relative to mouse Id1.
The target of assay [19] is T2, Human Id2: Histidine. Description: ELISA, coated antigen; relative to mouse Id1.
In assay [20] the target is T3, Mouse Id3: Histidine. Description: ELISA, coated antigen; relative to mouse Id1.
Assay [21] has as its target T4, Mouse Id2: Histidine. Description: ELISA, coated antigen; relative to mouse Id1.
For assay [22], the target named is T5, Human Id4: Histidine. The assay can be described thus: ELISA, coated antigen; relative to mouse Id1.

On to “rabbit monoclonal anti-mouse/human Id1, clone #BCH-1/#195-14 (antibody)”, for which the A450 turned out to be 0.052 A450 in [1]; 0.057 A450 in assay [2]; 0.049 A450 in [3]; 0.053 A450 in [4]; 0.048 A450 in [5]; 0.049 A450 in [6]. Besides, the A450 in [7] is 0.053 A450; in assay [8], 0.072 A450; in assay [9], 2.79 A450; in assay [10] it was 0.051 A450; in assay [11], 0.057 A450; in assay [12] it was 0.048 A450. Also, the A450 in assay [13] stood at 0.049 A450; in assay [14], 2.04 A450; in assay [15] it was 0.054 A450; in assay [16], 0.049 A450. Moreover, the Cross-reactivity (%) in [17], in assay [18], in [19], in [20], in [21] and in [22] was less than 1% each time.
Take “rabbit monoclonal anti-human Id1, clone #BCH-2/#5-3 (antibody)”: the A450 is 0.048 A450 in assay [1]; 0.056 A450 in [2]; 0.05 A450 in [3]; 0.052 A450 in assay [4]; 0.047 A450 in [5]; 0.05 A450 in assay [6]. The A450 in assay [7] is 0.052 A450; in assay [8] it was 0.062 A450; in [9], 0.151 A450; in [10], 0.05 A450; in assay [11], 0.049 A450; in [12] it was 0.056 A450. Besides, the A450 was 0.049 A450 in assay [13], 0.068 A450 in assay [14], 0.049 A450 in assay [15] and 0.047 A450 in [16].

B1: rabbit monoclonal anti-mouse Id1, clone #BCH-1/#37-2 (antibody, V domains shown)
VH: QSVEESGGRLVTPGTPLTLTCKVSGFDINSYAMDWFRQAPGKGLEWIGMMSTRGNTYYTSWAKGRFTISKTSSTTVDLKMTSLTTEDTATYFCARGGLWGPGTLVTVSS
VL: RVLTQTASPVSAAVGGTVTINCQASQSVYNGNRLGWYQLKPGQSPKELIHDASTLASGVPSRFRGSGSGTQFTLTINDVQCDDAATYYCVGSYACSTGDCNVFGGGTEVVVK
notes: Rabbit IgG from hybridoma, Protein G purified; also called m Id1 MoAb 37-2; Rabbit Monoclonal Anti-Mouse Id1 (#37-2)
For B1, the “Cross-reactivity (%)” value in [17], in assay [18], in [19], in [20], in assay [21] and in assay [22] was less than 1% in each case.
